Positions count from the first letter of the chain named.
B1: humanized antibody hu64 (antibody, V domains shown)
VH: QVQLVQSGAEVKKPGSSVKVSCKASGYTFTSYNMLWVRQAPGQGLEWMGVIFPGNGDTSYNPKFKGRVTLTADKSSSTAYMELSSLRSEDTAVYYCARDGYPSMDYWGQGTLVTVSS
VL: DTQLTQSPSFLSASVGDRVTITCITSTDIDDDMNWYQQKPGKAPKLLISEGNSLRPGVPSRFSSSGSGTEFTLTISSLQPEDFATYYCLQFNNMPLTFGQGTKLEIKR
B2: humanized antibody hu50 (antibody, V domains shown)
VH: B1 VH with S16A, G44R
VL: B1 VL with T2I, L4M, F10S, L11V, S64G, E70D
B3: humanized antibody hu52 (antibody, V domains shown)
VH: B1 VH with S16A, G44R
VL: B1 VL
B4: humanized antibody hu2 (antibody, V domains shown)
VH: EVQLLQSAAEVKRPGESLRISCKTSGYTFTEYTMHWVRQMPGKELEWMGVIDPSNGDTSYNQKFKGHVTISADKSSSTAYLQWSSLKASDAAMYYCSSTTGPWFASWGQGTLVTVSS
VL: DIQMTQSPSSLSASVGDRVTITCRASQDISNYLNWYQQKPGKAPKLLIYYKSRLHSGVPSRFSGSGSGTDFTLTISSLQPEDFATYYCQQVHTLPPTFGQGTKLEIKR
B5: humanized antibody hu3 (antibody, V domains shown)
VH: B4 VH
VL: EIVMTQSPPTLSLSPGERVTLSCRASQDISNYLNWYQQKPGQAPRLLIYYKSRLHSGIPARFSGSGSGTDFTLTISSLQPEDFAVYYCQQVHTLPPTFGQGTKLEIKR
B6: chi-29 (antibody, V domains shown)
VH: QVQLKQSGPGLVQPSQSLSITCTVSGFSLTAFDVHWVRQSPGKGLEWLGVIWIGGTTDYNGAFISRLSISKDNSKSQVFFKMNSLQAKDTAIYYCARKRGNYYNMDYWGQGTSVTVAS
VL: SQAVVTQESALTTSPGETVTLTCRSSTGTVTTTNYANWVQEKPDHLFTGLIGGTNNRAPGVPARFSGSLIGDKAALTITGAQTEDEAIYFCALWYSNHWVFGGGTKLTVL
B7: chi-2 (antibody, V domains shown)
VH: EVQLQQSGPELVKPGASVKIFCKTSGYTFTENTMHWVKQTHGKSLEWIGGINPHKGGTSYNQKFKGKATLTVDKSSSTACMELRSLTSEDSTVYYCARDWLGAMDYWGQGTSVTVSP
VL: MSSAQFLGLLLLCFQGTRCDIQMTQTTSSLSASLGDRVTINCRASQDISNYLNWYQQKPDGTVKLLIYYKSRLHSGVPTRFSGSGSGTDFSLTISNLVQEDIATYFCQQVHTLPPTFGGGTKLEIK
B8: chi-22 (antibody, V domains shown)
VH: QVTLKESGPGILQPSQTLSLTCSFSGFSLSTSGMGVGWIRQPSGKGLEWLAHIWWDDVKRYNPALKSRLTISKDTSSSQVFLKIASVDTTDTASYYCSRIARSPTGFAYWGQGTL
VL: QIVLTQSPVIMSASPGEKVTMTCSASSSVSYMYWYQQKPGSSPRLLIYDTSNLASGVPVRFSGSGSGTSYSLTISRMEAEDAATYYCQQWSSYPPALTFGAGTKLELK
B9: BHQ-880 (antibody, V domains shown)
VH: QVQLVESGGGLVQPGGSLRLSCAASGFTFSSYWMSWVRQAPGKGLEWVSGISYSGSNTHYADSVKGRFTISRDNSKNTLYLQMNSLRAEDTAVYYCARMGIDLDYWGQGTLVTVSS
VL: DIALTQPASVSGSPGQSITISCTGTSSDVGGFNYVSWYQQHPGKAPKLMIHDGSNRPSGVSNRFSGSKSGNTASLTISGLQAEDEADYYCQSWDVSPITAVFGGGTKLTVLG
B10: hybridoma antibody 17F14.3 (antibody, V domains shown)
VH: QVQLQQPGAELVKPGASVKMSCKASGYTFTSYNMLWVKQTPGQGLEWIGVIFPGNGDTSYNPKFKGKAALTADKSSSTAYMQLSSLTSEDSAVYYCARDGYPSMDYWGQGTSVTVSS
VL: ETIVTQSPASLSVATGEKVTIRCITSTDIDDDMNWYQQKPGEPPKLLISEGNSLRPGVPSRFSSSGYGTDFVFTIENTLSEDVADYYCLQFNNMPLTFGAGTKLELK
notes: Murine hybridoma antibody
B11: hybridoma antibody 11I18.4 (antibody, V domains shown)
VH: B7 VH
VL: ETTVTQSPASLSMAIGEKVTIRCITSTDIDDDMNWYQQKPGEPPKLLISEGNTLRPGVPSRFSSSGYGTDFVFTIENMLSEDVADYYCLQSDNLPYTFGGGTKLEIK
notes: Murine hybridoma antibody
B12: hybridoma antibody 19O15.6 (antibody, V domains shown)
VH: QIQLVQSGPELKKPGETVKISCKASGYTFTNHGMNWVKQAPGKGLKWMGWINTNTGEPTYADDFKGRFAFSLETSASTAYLQINNLKNEDTATYFCARRGYGFPYYYTMDYWGQGTSVTVSS
VL: QAVVTQESALTTSPGETVTLTCRSSTGAVTTRNYANWVQEKADHLLTGLIGGTKNRAPGVPARFSGSLIGDKAALTITGAQTEDEAKYFCALWYSNRLVFGGGTKLTVL
notes: Murine hybridoma antibody
B13: hybridoma antibody 7M2.6 (antibody, V domains shown)
VH: EVQLQQSGPELVKPGASVRISCKTSGYTFTEYTMHWVKQSHGKSLEWIGVIDPSNGDTSYNQKFKGRATLTVDKSSSTAYMDLRSLTSEDSALYYCSSTTGPWFACWGQGTLVTVSA
VL: DIQMTQTTSSLSASLGDRVTINCRASQDISNYLNWYQQKPDGTVKLLIYYKSRLHSGVPTRFSGSGSGTDFSLTISNLVQEDIATYFCQQVHTLPPTFGGGTKLEIK
notes: Murine hybridoma antibody
B14: hybridoma antibody 18J21.1 (antibody, V domains shown)
VH: B6 VH
VL: B12 VL with A28T, R32T, A42P, L46F, K54N, K87I, R97H, L98W
notes: Murine hybridoma antibody

Target: T1, human DKK1 antigen (Sino Biological, 10170-H08H) (human, UniProt O94907 32-266)
T1 chain: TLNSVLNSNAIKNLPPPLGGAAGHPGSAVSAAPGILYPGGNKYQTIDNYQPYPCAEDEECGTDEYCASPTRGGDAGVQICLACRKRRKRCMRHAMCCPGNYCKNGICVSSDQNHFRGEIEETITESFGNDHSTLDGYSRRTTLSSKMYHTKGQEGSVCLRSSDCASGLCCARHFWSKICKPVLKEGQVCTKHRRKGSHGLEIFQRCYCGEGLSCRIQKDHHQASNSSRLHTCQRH
Test: ELISA binding

In order of falling EC50:
1. B3  0.0238 µg/mL
2. B2  0.0234 µg/mL
3. B1  0.0222 µg/mL
4. B5  0.0138 µg/mL
5. B4  0.01 µg/mL

Target: T1, human DKK1 antigen (Sino Biological, …)
Test: ELISA blocking of DKK1-LRP6

In order of falling IC50:
1. B2  0.239 µg/mL
2. B4  0.193 µg/mL
3. B1  0.176 µg/mL
4. B5  0.169 µg/mL
5. B3  0.155 µg/mL

Target: T1, human DKK1 antigen (Sino Biological, …)
Test: ELISA blocking of DKK1-LRP6
Remark: another data set of the same source

In order of falling IC50:
1. B7  1.79 µg/mL
2. B6  1.43 µg/mL
3. B8  ~0.246 µg/mL

Target: T1, human DKK1 antigen (Sino Biological, …)
Test: ELISA blocking of DKK1-LRP6
Remark: another data set of the same source

In order of falling IC50:
1. B12  ~10.1 µg/mL
2. B9  1.1 µg/mL
3. B13  0.892 µg/mL
4. B10  0.529 µg/mL
5. B11  0.459 µg/mL

target: T2, human DKK1 antigen (Sino Biological, 10170-H08H) (human, UniProt O94907 32-266); test: competitive ELISA against LRP6 for DKK1
T2 construct: also called huDKK1; hDKK1
T2 sequence (looked up): T1 chain

B10: binds.
B11: binds.
B12: binds.
B14: binds.
B13: binds.

— patent US20250122271A1, “ANTI-DKK1 ANTIBODY, PHARMACEUTICAL COMPOSITION THEREOF, AND USE THEREOF” (SHANGHAI JUNSHI BIOSCIENCES CO., LTD., priority 2022, published 2025)
